Experimental data as given in publication PMC3381609.
Positions count from the first letter of the chain named. Numbers in names are those of the source.

B1: β-glycosidase (β-gly) (Saccharolobus solfataricus P2; W33G) (protein)
chain: MYSFPNSFRFGWSQAGFQSEMGTPGSEDPNTDGYKWVHDPENMAAGLVSGDLPENGPGYWGNYKTFHDNAQKMGLKIARLNVEWSRIFPNPLPRPQNFDESKQDVTEVEINENELKRLDEYANKDALNHYREIFKDLKSRGLYFILNMYHWPLPLWLHDPIRVRRGDFTGPSGWLSTRTVYEFARFSAYIAWKFDDLVDEYSTMNEPNVVGGLGYVGVKSGFPPGYLSFELSRRAMYNIIQAHARAYDGIKSVSKKPVGIIYANSSFQPLTDKDMEAVEMAENDNRWWFFDAIIRGEITRGNEKIVRDDLKGRLDWIGVNYYTRTVVKRTEKGYVSLGGYGHGCERNSVSLAGLPTSDFGWEFFPEGLYDVLTKYWNRYHLYMYVTENGIADDADYQRPYYLVSHVYQVHRAINSGADVRGYLHWSLADNYEWASGFSMRFGLLKVDYNTKRLYWRPSALVYREIATNGAITDEIEHLNSVPPVKPLRH
B2: β-glycosidase (β-gly) (Saccharolobus solfataricus P2) (protein)
chain: B1 chain with G33W

Substrate: O=C1OC2(c3ccc(O[C@@H]4O[C@H](CO)[C@H](O)[C@H](O)[C@H]4O)cc3Oc3cc(O[C@@H]4O[C@H](CO)[C@H](O)[C@H](O)[C@H]4O)ccc32)c2ccccc21
Experiment: purified protein
Type: biochemical, Saccharolobus solfataricus
Conditions: no indole, pH 6.5, 37 °C, 50 mM sodium phosphate, 5% DMSO

Protein | Km [µM] | kcat [s⁻¹]
B1 | 1080 ± 30 | 0.00675 ± 0.00004
B2 | 58 ± 4 | 0.265 ± 0.002
